The supplement of paper PMC9233669
Variants at the floor of the assay were thinned out.

How the values were obtained:
biotinyl-Phe-oxazolone = experiment: self-aminoacylation, catalytic enhancement (BFO) (fold over background); higher = more active; k-Seq, kA / k0A0; sequences stand for … in GGGAAUGGAUCCACAUCUACGAAUUC…UUCACUGCAGACUUGACGAAGCUG
Summary of the method: (§1)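 Mutagenized RNA pools with a 21-nt variable region (0.43 μM) were reacted with each biotinyl-aminoacyl-oxazolone at 2–1250 μM for 90 minutes at room temperature, in 50 μL HEPES/NaCl/KCl/MgCl2/CaCl2 buffer containing 5% acetonitrile at pH 6.9–7.0. RNA captured on streptavidin was quantified by triplicate qPCR and by Illumina sequencing. The fraction reacted for each sequence was fit to a pseudo-first-order model with bootstrapping, and catalytic enhancement is the median kA divided by the uncatalyzed rate, taken as the low-activity peak of a bimodal Gaussian fit.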

biotinyl-Trp-oxazolone = experiment: self-aminoacylation, catalytic enhancement (BWO) (fold over background); higher = more active; k-Seq, kA / k0A0; sequences stand for … in GGGAAUGGAUCCACAUCUACGAAUUC…UUCACUGCAGACUUGACGAAGCUG
Summary of the method: as §1

biotinyl-Leu-oxazolone = experiment: self-aminoacylation, catalytic enhancement (BLO) (fold over background); higher = more active; k-Seq, kA / k0A0; sequences stand for … in GGGAAUGGAUCCACAUCUACGAAUUC…UUCACUGCAGACUUGACGAAGCUG
Summary of the method: as §1

biotinyl-Val-oxazolone = experiment: self-aminoacylation, catalytic enhancement (BVO) (fold over background); higher = more active; k-Seq, kA / k0A0; sequences stand for … in GGGAAUGGAUCCACAUCUACGAAUUC…UUCACUGCAGACUUGACGAAGCUG
Summary of the method: as §1

biotinyl-Met-oxazolone = experiment: self-aminoacylation, catalytic enhancement (BMO) (fold over background); higher = more active; k-Seq, kA / k0A0; sequences stand for … in GGGAAUGGAUCCACAUCUACGAAUUC…UUCACUGCAGACUUGACGAAGCUG
Summary of the method: as §1

biotinyl-Ile-oxazolone = experiment: self-aminoacylation, catalytic enhancement (BIO) (fold over background); higher = more active; k-Seq, kA / k0A0; sequences stand for … in GGGAAUGGAUCCACAUCUACGAAUUC…UUCACUGCAGACUUGACGAAGCUG
Summary of the method: as §1

AUUACCAUGGUCAUCAAGUGA [Fam2.1 aminoacylation ribozyme variant]
self-aminoacylation (biotinyl-Phe-oxazolone): 5.16
self-aminoacylation (biotinyl-Trp-oxazolone): 5.09
self-aminoacylation (biotinyl-Leu-oxazolone): 4.04
self-aminoacylation (biotinyl-Val-oxazolone): 2.4
self-aminoacylation (biotinyl-Met-oxazolone): 3.69
self-aminoacylation (biotinyl-Ile-oxazolone): 2.22

AUUACCAUGGUCAUCGAGUCA [Fam2.1 aminoacylation ribozyme variant]
self-aminoacylation (biotinyl-Phe-oxazolone): 0.683
self-aminoacylation (biotinyl-Trp-oxazolone): 0.451
self-aminoacylation (biotinyl-Leu-oxazolone): 0.823
self-aminoacylation (biotinyl-Val-oxazolone): 0.778
self-aminoacylation (biotinyl-Met-oxazolone): 0.695
self-aminoacylation (biotinyl-Ile-oxazolone): 0.821

AUUACCAUGGUCAUCGGGUGA [Fam2.1 aminoacylation ribozyme variant]
self-aminoacylation (biotinyl-Phe-oxazolone): 96
self-aminoacylation (biotinyl-Trp-oxazolone): 16.2
self-aminoacylation (biotinyl-Leu-oxazolone): 13.6
self-aminoacylation (biotinyl-Val-oxazolone): 7.28
self-aminoacylation (biotinyl-Met-oxazolone): 14.7
self-aminoacylation (biotinyl-Ile-oxazolone): 6.52

AUUACCAUGGUCAUCGUGUGA [Fam2.1 aminoacylation ribozyme variant]
self-aminoacylation (biotinyl-Phe-oxazolone): 27.8
self-aminoacylation (biotinyl-Trp-oxazolone): 5.96
self-aminoacylation (biotinyl-Leu-oxazolone): 4.26
self-aminoacylation (biotinyl-Val-oxazolone): 2.2
self-aminoacylation (biotinyl-Met-oxazolone): 4.58
self-aminoacylation (biotinyl-Ile-oxazolone): 1.9

AUUACCAUGGUCAUCUAGUGA [Fam2.1 aminoacylation ribozyme variant]
self-aminoacylation (biotinyl-Phe-oxazolone): 59.9
self-aminoacylation (biotinyl-Trp-oxazolone): 15.6
self-aminoacylation (biotinyl-Leu-oxazolone): 11.1
self-aminoacylation (biotinyl-Val-oxazolone): 5.38
self-aminoacylation (biotinyl-Met-oxazolone): 11.1
self-aminoacylation (biotinyl-Ile-oxazolone): 5.41

AUUACCAUGGUCAUGGAGUGA [Fam2.1 aminoacylation ribozyme variant]
self-aminoacylation (biotinyl-Phe-oxazolone): 24.3
self-aminoacylation (biotinyl-Trp-oxazolone): 7.35
self-aminoacylation (biotinyl-Leu-oxazolone): 5.78
self-aminoacylation (biotinyl-Val-oxazolone): 3.34
self-aminoacylation (biotinyl-Met-oxazolone): 5.25
self-aminoacylation (biotinyl-Ile-oxazolone): 3.74

AUUACCAUGGUUAUCGAGUGA [Fam2.1 aminoacylation ribozyme variant]
self-aminoacylation (biotinyl-Phe-oxazolone): 69.6
self-aminoacylation (biotinyl-Trp-oxazolone): 12.2
self-aminoacylation (biotinyl-Leu-oxazolone): 10.6
self-aminoacylation (biotinyl-Val-oxazolone): 4.79
self-aminoacylation (biotinyl-Met-oxazolone): 9.62
self-aminoacylation (biotinyl-Ile-oxazolone): 4.38

AUUACCCAGCUCAUCGAGUGA [Fam2.1 aminoacylation ribozyme variant]
self-aminoacylation (biotinyl-Phe-oxazolone): 1.01
self-aminoacylation (biotinyl-Trp-oxazolone): 1.32
self-aminoacylation (biotinyl-Leu-oxazolone): 1.52
self-aminoacylation (biotinyl-Val-oxazolone): 1.56
self-aminoacylation (biotinyl-Met-oxazolone): 1.54
self-aminoacylation (biotinyl-Ile-oxazolone): 1.47

AUUACCCAGGUCACCGAGUGA [Fam2.1 aminoacylation ribozyme variant]
self-aminoacylation (biotinyl-Phe-oxazolone): 66.2
self-aminoacylation (biotinyl-Trp-oxazolone): 10.3
self-aminoacylation (biotinyl-Leu-oxazolone): 10.2
self-aminoacylation (biotinyl-Val-oxazolone): 4.49
self-aminoacylation (biotinyl-Met-oxazolone): 8.63
self-aminoacylation (biotinyl-Ile-oxazolone): 4.17

AUUACCCAGGUCAUCGAGUGG [Fam2.1 aminoacylation ribozyme variant]
self-aminoacylation (biotinyl-Phe-oxazolone): 0.937
self-aminoacylation (biotinyl-Trp-oxazolone): 0.735
self-aminoacylation (biotinyl-Leu-oxazolone): 1.3
self-aminoacylation (biotinyl-Val-oxazolone): 1.22
self-aminoacylation (biotinyl-Met-oxazolone): 1.07
self-aminoacylation (biotinyl-Ile-oxazolone): 1.14

AUUACCCAGGUCAUCGCGUGA [Fam2.1 aminoacylation ribozyme variant]
self-aminoacylation (biotinyl-Phe-oxazolone): 156
self-aminoacylation (biotinyl-Trp-oxazolone): 19.3
self-aminoacylation (biotinyl-Leu-oxazolone): 22.9
self-aminoacylation (biotinyl-Val-oxazolone): 10.3
self-aminoacylation (biotinyl-Met-oxazolone): 20.3
self-aminoacylation (biotinyl-Ile-oxazolone): 8.22

AUUACCCAGGUCAUCGGGUGA [Fam2.1 aminoacylation ribozyme variant]
self-aminoacylation (biotinyl-Phe-oxazolone): 75.2
self-aminoacylation (biotinyl-Trp-oxazolone): 11
self-aminoacylation (biotinyl-Leu-oxazolone): 12.6
self-aminoacylation (biotinyl-Val-oxazolone): 7.25
self-aminoacylation (biotinyl-Met-oxazolone): 11.5
self-aminoacylation (biotinyl-Ile-oxazolone): 5.86

AUUACCCAGUUCAUCGAGUGA [Fam2.1 aminoacylation ribozyme variant]
self-aminoacylation (biotinyl-Phe-oxazolone): 16.8
self-aminoacylation (biotinyl-Trp-oxazolone): 4.78
self-aminoacylation (biotinyl-Leu-oxazolone): 3.09
self-aminoacylation (biotinyl-Val-oxazolone): 2.62
self-aminoacylation (biotinyl-Met-oxazolone): 3.69
self-aminoacylation (biotinyl-Ile-oxazolone): 2.14

AUUACCCAUGUCAUCGAGUGA [Fam2.1 aminoacylation ribozyme variant]
self-aminoacylation (biotinyl-Phe-oxazolone): 34.3
self-aminoacylation (biotinyl-Trp-oxazolone): 9.9
self-aminoacylation (biotinyl-Leu-oxazolone): 8.07
self-aminoacylation (biotinyl-Val-oxazolone): 4.43
self-aminoacylation (biotinyl-Met-oxazolone): 7.7
self-aminoacylation (biotinyl-Ile-oxazolone): 4.15

AUUACCCCCGUCAUCGAGUGA [Fam2.1 aminoacylation ribozyme variant]
self-aminoacylation (biotinyl-Phe-oxazolone): 18.4
self-aminoacylation (biotinyl-Trp-oxazolone): 4.67
self-aminoacylation (biotinyl-Leu-oxazolone): 4.7
self-aminoacylation (biotinyl-Val-oxazolone): 3.12
self-aminoacylation (biotinyl-Met-oxazolone): 4.43
self-aminoacylation (biotinyl-Ile-oxazolone): 2.84

AUUACCCCGGUCAUAGAGUGA [Fam2.1 aminoacylation ribozyme variant]
self-aminoacylation (biotinyl-Phe-oxazolone): 43.1
self-aminoacylation (biotinyl-Trp-oxazolone): 8.65
self-aminoacylation (biotinyl-Leu-oxazolone): 8.34
self-aminoacylation (biotinyl-Val-oxazolone): 3.96
self-aminoacylation (biotinyl-Met-oxazolone): 7.91
self-aminoacylation (biotinyl-Ile-oxazolone): 4.47

AUUACCCCGGUCAUCCAGUGA [Fam2.1 aminoacylation ribozyme variant]
self-aminoacylation (biotinyl-Phe-oxazolone): 31.4
self-aminoacylation (biotinyl-Trp-oxazolone): 5.63
self-aminoacylation (biotinyl-Leu-oxazolone): 5.88
self-aminoacylation (biotinyl-Val-oxazolone): 3.06
self-aminoacylation (biotinyl-Met-oxazolone): 4.93
self-aminoacylation (biotinyl-Ile-oxazolone): 3.52

AUUACCCCGGUCAUCGAGUGG [Fam2.1 aminoacylation ribozyme variant]
self-aminoacylation (biotinyl-Phe-oxazolone): 4.86
self-aminoacylation (biotinyl-Trp-oxazolone): 0.999
self-aminoacylation (biotinyl-Leu-oxazolone): 2.42
self-aminoacylation (biotinyl-Val-oxazolone): 1.13
self-aminoacylation (biotinyl-Met-oxazolone): 1.25
self-aminoacylation (biotinyl-Ile-oxazolone): 0.919

AUUACCCCGGUCAUCGUGUGA [Fam2.1 aminoacylation ribozyme variant]
self-aminoacylation (biotinyl-Phe-oxazolone): 16.2
self-aminoacylation (biotinyl-Trp-oxazolone): 2.98
self-aminoacylation (biotinyl-Leu-oxazolone): 2.57
self-aminoacylation (biotinyl-Val-oxazolone): 1.74
self-aminoacylation (biotinyl-Met-oxazolone): 2.63
self-aminoacylation (biotinyl-Ile-oxazolone): 1.55

AUUACCCCGUUCAUCGAGUGA [Fam2.1 aminoacylation ribozyme variant]
self-aminoacylation (biotinyl-Phe-oxazolone): 7.48
self-aminoacylation (biotinyl-Trp-oxazolone): 5.03
self-aminoacylation (biotinyl-Leu-oxazolone): 3.55
self-aminoacylation (biotinyl-Val-oxazolone): 2.77
self-aminoacylation (biotinyl-Met-oxazolone): 4.47
self-aminoacylation (biotinyl-Ile-oxazolone): 2.28

AUUACCCCUGUCAUCGAGUGA [Fam2.1 aminoacylation ribozyme variant]
self-aminoacylation (biotinyl-Phe-oxazolone): 28.2
self-aminoacylation (biotinyl-Trp-oxazolone): 7.28
self-aminoacylation (biotinyl-Leu-oxazolone): 5.42
self-aminoacylation (biotinyl-Val-oxazolone): 3.14
self-aminoacylation (biotinyl-Met-oxazolone): 4.96
self-aminoacylation (biotinyl-Ile-oxazolone): 3.62

AUUACCCGGGUAAUCGAGUGA [Fam2.1 aminoacylation ribozyme variant]
self-aminoacylation (biotinyl-Phe-oxazolone): 81
self-aminoacylation (biotinyl-Trp-oxazolone): 13.2
self-aminoacylation (biotinyl-Leu-oxazolone): 13.9
self-aminoacylation (biotinyl-Val-oxazolone): 5.84
self-aminoacylation (biotinyl-Met-oxazolone): 12.1
self-aminoacylation (biotinyl-Ile-oxazolone): 5.16
